Patent US20220177587A1 (Alpine Immune Sciences, Inc., published 2022)
Substitutions are numbered along the chain they refer to. In names and notes the source's numbering stands.

Assays:
[1] = molecular target: human CTLA-4 (human, UniProt P16410); assay: flow cytometry, CHO/CTLA4 cells; MFI over CD80 WT IgV-Fc
[2] = molecular target: human PD-L1 (human, UniProt Q9NZQ7); assay: flow cytometry, CHO/PD-L1 cells; MFI over CD80 WT IgV-Fc
[3] = molecular target: human CD28 (human, UniProt P10747); assay: flow cytometry, Jurkat cells (CD28); MFI over CD80 WT IgV-Fc
[4] = molecular target: human CD28 (human, UniProt P10747); assay: cell-based or functional assay

B1: CD80 E35D/M47V/N48K/V68M/K89N IgV-Fc, delta linker (Fc fusion)
chain: VIHVTKEVKEVATLSCGHNVSVEELAQTRIYWQKDKKMVLTMMSGDVKIWPEYKNRTIFDITNNLSIMILALRPSDEGTYECVVLKYENDAFKREHLAEVTLSVKTHTCPPCPAPEAEGAPSVFLFPPKPKDTLMISRTPEVTCVVVDVSHEDPEVKFNWYVDGVEVHNAKTKPREEQYNSTYRVVSVLTVLHQDWLNGKEYKCKVSNKALPAPIEKTISKAKGQPREPQVYTLPPSREEMTKNQVSLTCLVKGFYPSDIAVEWESNGQPENNYKTTPPVLDSDGSFFLYSKLTVDKSRWQQGNVFSCSVMHEALHNHYTQKSLSLSPG
- Fold change to WT CD80 [1]: 2.6 fold
- Fold change to WT CD80 [2]: 439 fold
- Fold change to WT CD80 [3]: 83.7 fold

B2: CD80 E35D/D46V/M47L/V68M/L85Q/E88D IgV-Fc, delta linker (Fc fusion)
chain: B1 chain with D46V, V47L, K48N, L85Q, E88D, N89K
- Fold change to WT CD80 [1]: 10.2 fold
- Fold change to WT CD80 [2]: 484 fold
- Fold change to WT CD80 [3]: 74.7 fold

B3: SIP 2: Variant CD80 IgV-GSG4S-Inert Fc (E35D, D46V, M47L, and V68M) (Fc fusion)
chain: VIHVTKEVKEVATLSCGHNVSVEELAQTRIYWQKDKKMVLTMMSGVLNIWPEYKNRTIFDITNNLSIMILALRPSDEGTYECVVLKYEKDAFKREHLAEVTLSVKADGSGGGGSEPKSSDKTHTCPPCPAPEAEGAPSVFLFPPKPKDTLMISRTPEVTCVVVDVSHEDPEVKFNWYVDGVEVHNAKTKPREEQYNSTYRVVSVLTVLHQDWLNGKEYKCKVSNKALPAPIEKTISKAKGQPREPQVYTLPPSRDELTKNQVSLTCLVKGFYPSDIAVEWESNGQPENNYKTTPPVLDSDGSFFLYSKLTVDKSRWQQGNVFSCSVMHEALHNHYTQKSLSLSPG
- CD28 costimulation EC50, Jurkat/IL-2 luciferase reporter; SIP 2 (Supernatant) from Donor 1 Pan T-cells [4]: 0.282 nM
- CD28 costimulation EC50, Jurkat/IL-2 luciferase reporter; SIP 2 (Supernatant) from Donor 2 Pan T-cells [4]: 0.75 nM
- CD28 costimulation EC50, Jurkat/IL-2 luciferase reporter; SIP 2 (Supernatant) from Jurkat cells [4]: 0.75 nM

B4: SIP 3: Variant CD80 IgV-GSG4S-Inert Fc (H18Y, E35D, M47V, V68M, and A71G) (Fc fusion)
chain: B3 chain with H18Y, V46D, L47V, A71G
- CD28 costimulation EC50, Jurkat/IL-2 luciferase reporter; SIP 3 (Supernatant) from Donor 1 Pan T-cells [4]: 0.294 nM
- CD28 costimulation EC50, Jurkat/IL-2 luciferase reporter; SIP 3 (Supernatant) from Donor 2 Pan T-cells [4]: 0.961 nM
- CD28 costimulation EC50, Jurkat/IL-2 luciferase reporter; SIP 3 (Supernatant) from Jurkat cells [4]: 0.961 nM

B5: SIP 4: Variant CD80 IgV-GSG4S-Inert Fc (H18Y, A26P, E35D, M47I, V68M, and A71G) (Fc fusion)
chain: B3 chain with H18Y, A26P, V46D, L47I, A71G
- CD28 costimulation EC50, Jurkat/IL-2 luciferase reporter; SIP 4 (Supernatant) from Donor 1 Pan T-cells [4]: 0.153 nM
- CD28 costimulation EC50, Jurkat/IL-2 luciferase reporter; SIP 4 (Supernatant) from Donor 2 Pan T-cells [4]: 0.221 nM
- CD28 costimulation EC50, Jurkat/IL-2 luciferase reporter; SIP 4 (Supernatant) from Jurkat cells [4]: 0.221 nM
